From publication PMC4233142

Biological target: YFPC-2aCore (hepatitis C virus genotype 2a (JFH-1)) (UniProt Q99IB8)
Test: split reporter

Substance “YFPN-2a5B (from UniProt Q99IB8 2443-3033) (natural protein)” has a percent of RFP-expressing cells that also expressed YFP of 43%.
